Test results as given in PMC5010387.

Biological target: ClC-ec1 C85A/H234C labelled with Cy5 (WT-Cy5) (Escherichia coli) (UniProt P37019)
Assay: single-molecule photobleaching of subunits captured into liposomes (TIRF); high-density proteoliposomes (χ = 7.5 × 10^-6 subunit/lipid) diluted 10X to 1000X by freeze/thaw fusion with empty 2:1 POPE/POPG vesicles, incubated at room temperature, time course after freeze/thaw

- mid-point of the convergence of the 1000X diluted sample to the reconstituted probabilities: 13 days
Substance: ClC-ec1 C85A/H234C labelled with Cy5 (WT-Cy5) (from UniProt P37019 1-473) (natural protein)
